Reference: publication PMC3627919, “Novel Split-Luciferase-Based Genetically Encoded Biosensors for Noninvasive Visualization of Rho GTPases” (PLoS ONE, 2013)

Target: T1, Nfluc416-WASP (human, UniProt P42768 220-288)
T1 sequence (looked up): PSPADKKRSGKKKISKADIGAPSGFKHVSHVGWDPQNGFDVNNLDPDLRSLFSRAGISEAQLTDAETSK
Experiment: split reporter (BiFC, NanoBiT); bimolecular luminescence complementation (split firefly luciferase) in living HEK 293 cells, 24 h after transient cotransfection of the pair (50 ng/well) with pRL-tk; D-luciferin 150 ug/ml; IVIS CCD camera; ratio FL at 600 nm to RL at 500 nm; wild-type pairs also with co-expressed GEF or GAP catalytic domains
Conditions: partners not purified

B1: Cfluc398-CDC42(G12V) (natural protein)
chain: not shown
  luminescence signal, fold of the active mutant over the wild type: 2.77 fold
  reconstituted luminescence (FL/RL), fold over CDC42 F37A: 14.3 fold
  reconstituted luminescence (FL/RL), fold over CDC42 T17N: 5.6 fold
  reconstituted luminescence (FL/RL), fold over CDC42 WT: 2.7 fold
